In the RNAGym collection of RNA variant scans (doi:10.1093/molbev/msab373):

B1: Azoarcus group I ribozyme (parent)
chain: GUGCCUUGCGCCGGGAAACCACGCAAGGGAUGGUGUCAAAUUCGGCGAAACCUAAGCGCCCGCCCGGGCGUAUGGCAACGCCGAGCCAAGCUUCGGCGCCUGCGCCGAUGAAGGUGUAGAGACUAGACGGCACCCACCUAAGGCAAACGCUAUGGUGAAGGCAUAGUCCAGGGAGUGGCGAAAGUCACACAAACCGG

Variants of: B1
Test: reverse-splicing fitness (ratio to wild type); higher = more active; in vitro selection; Mg2+ level not given
Method in brief: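 An in vitro group I ribozyme library with randomized positions was T7-transcribed and gel-purified. In triplicate, 10 pmol RNA in EPPS pH 7.5 was reacted with 50 pmoles of a 30-nt RNA substrate for 1 h at 37 °C across several added MgCl2 levels (1–48 mM), then stopped with EDTA. Products were reverse transcribed from a substrate-complementary primer, PCR-amplified and sequenced (HiSeq 4000). Fitness is a variant's read proportion after selection over that before, normalised to wild type.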

Row | Variant | reverse-splicing fitness
1 | A111G A120C C150U C169A U176A | 0.0182
2 | A111G A120C C150U C169A U176C | 0.012
3 | A111G A120C C150U C169A U176G | 0.00384
4 | A111G A120G A145U C150G C169G U176C | 0.00471
5 | A111G A120G A145U C150G C169G U176A | 0.00768
6 | A111G A120G A145U C150G C169G U176G | 0.00457
7 | A111G A120G A145C C150A C169A U176C | 0.00695
8 | A111G A120G A145C C150A C169A U176G | 0.00399
9 | A111G A120G A145C C150A C169A U176A | 0.0135
10 | A111G A120G C150A C169A | 0.0242
11 | A111G A120G C150A C169U | 0.0298
12 | A111G A120G C150A C169G | 0.0355
13 | A111G A120G A145G C169U | 0.252
14 | A111G A120G A145G C169A | 0.188
15 | A111G A120G A145G C169G | 0.329
16 | A111G A120G A145U U176A | 0.0829
17 | A111G A120G A145U U176G | 0.00952
18 | A111G A120G A145U U176C | 0.116
19 | A111G A120G A145G C150G C169A | 0.0213
20 | A111G A120G A145G C150G C169G | 0.0306
21 | A111G A120G A145G C150G C169U | 0.0343

Row | Variant | reverse-splicing fitness
22 | A111G A120C U176A | 0.47
23 | A111G A120C U176G | 0.125
24 | A111G A120C U176C | 0.522
25 | A111G A120G A145G C150U U176C | 0.0905
26 | A111G A120G A145G C150U U176G | 0.00986
27 | A111G A120G A145G C150U U176A | 0.0693
28 | A111G A120G A145C C150A C169U U176C | 0.0129
29 | A111G A120G A145C C150A C169U U176G | 0.00508
30 | A111G A120G A145C C150A C169U U176A | 0.0233
31 | A111G A120C C150G U176C | 0.036
32 | A111G A120C C150G U176G | 0.00371
33 | A111G A120C C150G U176A | 0.0119
34 | A111G A120C C169U U176A | 0.0684
35 | A111G A120C C169U U176C | 0.0857
36 | A111G A120C C169U U176G | 0.00675
37 | A111G A120G A145U C150G C169A U176A | 0.0101
38 | A111G A120G A145U C150G C169A U176G | 0.00435
39 | A111G A120G A145U C150G C169A U176C | 0.0123
40 | A111G A120U A145C C150U | 0.264
41 | A111G A120U A145C C150A | 0.0434
42 | A111G A120U A145C C150G | 0.116

Row | Variant | reverse-splicing fitness
43 | A111G A120U A145C C150A C169U | 0.00746
44 | A111G A120U A145C C150A C169A | 0.00208
45 | A111G A120U A145C C150A C169G | 0.0049
46 | A111G A120G C150G C169A U176G | 0.00604
47 | A111G A120G C150G C169A U176A | 0.00862
48 | A111G A120G C150G C169A U176C | 0.0116
49 | A111G A120G U176A | 0.0836
50 | A111G A120G U176G | 0.0093
51 | A111G A120G U176C | 0.117
52 | A111G A120G A145U C150A | 0.0301
53 | A111G A120G A145U C150U | 0.19
54 | A111G A120G A145U C150G | 0.0319
55 | A111G A120G A145C C150G C169G U176C | 0.00653
56 | A111G A120G A145C C150G C169G U176G | 0.00389
57 | A111G A120G A145C C150G C169G U176A | 0.0101
58 | A111G A120C C150G C169G U176G | 0.00385
59 | A111G A120C C169G | 0.0129
60 | A111G A120C C169A | 0.0146
61 | A111G A120C C169U | 0.271
62 | A111G A120G A145G C169A U176A | 0.0489
63 | A111G A120G A145G C169A U176G | 0.00474

Row | Variant | reverse-splicing fitness
64 | A111G A120G A145G C169A U176C | 0.0746
65 | A111G A120G C150U C169G U176G | 0.00531
66 | A111G A120G C150U C169G U176C | 0.0735
67 | A111G A120G C150U C169G U176A | 0.0529
68 | A111G A120U A145C C150A C169G U176A | 0.00272
69 | A111G A120U A145C C150A C169G U176G | 0.00195
70 | A111G A120U A145C C150A C169G U176C | 0.00181
71 | A111G A120U A145C C150G C169G U176G | 0.00213
72 | A111G A120U A145C C150G C169G U176A | 0.00296
73 | A111G A120U A145C C150G C169G U176C | 0.0019
74 | A111G A120G A145U C150G U176C | 0.0217
75 | A111G A120G A145U C150G U176G | 0.00354
76 | A111G A120G A145U C150G U176A | 0.0126
77 | A111G A120C C169G U176G | 0.00351
78 | A111G A120C C169G U176C | 0.0183
79 | A111G A120C C169G U176A | 0.0158
80 | A111G A120G A145G C150A U176A | 0.0225
81 | A111G A120G A145G C150A U176G | 0.00788
82 | A111G A120G A145G C150A U176C | 0.0374
83 | A111G A120G A145U C150A C169U | 0.0268
